Test results from article PMC10053881 (Pharmaceutics, 2023).
“Also recorded” adds a separate entry of the source.

System: gastric NET with lymph node and hepatic metastases
Assay: PET/CT imaging in a NET patient
Type: in vivo, human
Details: [68Ga]Ga-DOTA-NOC 1 h pi, [68Ga]Ga-DATA5m-LM4 10 min–3 h pi
Excerpt: After a preceding PET/CT imaging with [^68Ga]Ga-DOTA-NOC ([^68Ga]Ga-DOTA-[1-Nal^3]octreotide), the patient underwent first PET/CT with [^68Ga]Ga-DATA^5m-LM4 on a dedicated GE Discovery 710 × 128 Slice PET/CT Scanner (GE HealthCare Technologies Inc.,/GE Healthcare, Chicago, IL, USA), with a 40 mm detector at a 0.35 s rotation speed and a 128-slice CT scanner. The images were corrected for random and scatter counts, decay correction and dead time correction. PET images were reconstructed with iterative reconstruction using ordered subset expectation maximization algorithm (OSEM) (2 iterations, 24 subsets). They were processed and analyzed with a dedicated commercially available workstation (GE Xeleris). Further details on the patient preparation, scan and data acquisition protocol are included in the Supplementary Materials.
Radiosynthesis of [68Ga]Ga-DATA5m-LM4 and [177Lu]Lu-AAZTA5-LM4 for Patient […]
For radiolabeling of DATA5m-LM4 with Ga-68, [68Ga]GaCl3 (200 MBq) obtained from a commercial [68Ge]Ge/[68Ga]Ga-generator (ITM Isotope Technologies Munich SE, Garching, Germany) was added in a vial containing a solution of DATA5m-LM4 (50 µg, 32.5 nmol) in 500 µL of 1 M sodium acetate buffer pH 4.5. The reaction mixture was heated for 15 min at 95 °C, affording [68Ga]Ga-DATA5m-LM4 in a radiochemical purity […]

[^68Ga]Ga-DOTA-[1-Nal^3]octreotide [[^68Ga]Ga-DOTA-NOC]
uptake in liver metastases on PET/CT: mild to negligible uptake; also recorded: weak uptake
